Paper PMC3562429 (Developmental cell, 2013)

Biological target: T1, Aim3 (budding yeast, UniProt P38266 1-947)
T1 sequence (looked up): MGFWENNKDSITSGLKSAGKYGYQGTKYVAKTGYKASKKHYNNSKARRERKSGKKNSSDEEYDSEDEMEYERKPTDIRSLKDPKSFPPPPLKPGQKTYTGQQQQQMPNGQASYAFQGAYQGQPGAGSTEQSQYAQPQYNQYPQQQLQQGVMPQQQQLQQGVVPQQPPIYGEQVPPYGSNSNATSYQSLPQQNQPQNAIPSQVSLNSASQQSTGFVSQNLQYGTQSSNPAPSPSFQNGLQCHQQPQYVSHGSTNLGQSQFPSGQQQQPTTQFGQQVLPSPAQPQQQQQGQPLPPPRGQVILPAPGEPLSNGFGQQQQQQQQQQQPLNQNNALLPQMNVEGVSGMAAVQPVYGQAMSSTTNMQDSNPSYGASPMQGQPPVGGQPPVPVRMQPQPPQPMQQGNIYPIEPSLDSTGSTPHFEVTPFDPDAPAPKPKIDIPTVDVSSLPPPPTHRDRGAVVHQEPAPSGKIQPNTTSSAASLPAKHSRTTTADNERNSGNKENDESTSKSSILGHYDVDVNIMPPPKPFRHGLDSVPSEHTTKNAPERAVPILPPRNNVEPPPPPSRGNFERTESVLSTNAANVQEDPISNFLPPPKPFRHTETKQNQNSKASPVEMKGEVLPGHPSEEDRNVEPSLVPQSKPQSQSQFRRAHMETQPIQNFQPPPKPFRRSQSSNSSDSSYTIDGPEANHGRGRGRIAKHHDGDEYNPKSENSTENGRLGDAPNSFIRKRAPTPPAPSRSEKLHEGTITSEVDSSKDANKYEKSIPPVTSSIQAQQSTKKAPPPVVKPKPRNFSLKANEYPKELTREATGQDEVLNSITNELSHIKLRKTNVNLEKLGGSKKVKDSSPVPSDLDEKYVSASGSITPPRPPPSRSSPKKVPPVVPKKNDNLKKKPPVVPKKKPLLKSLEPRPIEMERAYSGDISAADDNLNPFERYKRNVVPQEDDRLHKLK
Assay: pull-down

binding result: binds
B1: Abp1-9myc (Actin binding protein 1) (natural protein, budding yeast, UniProt P15891 1-592, looked up)
chain: MALEPIDYTTHSREIDAEYLKIVRGSDPDTTWLIISPNAKKEYEPESTGSSFHDFLQLFDETKVQYGLARVSPPGSDVEKIIIIGWCPDSAPLKTRASFAANFAAVANNLFKGYHVQVTARDEDDLDENELLMKISNAAGARYSIQTSSKQQGKASTPPVKKSFTPSKSPAPVSKKEPVKTPSPAPAAKISSRVNDNNDDDDWNEPELKERDFDQAPLKPNQSSYKPIGKIDLQKVIAEEKAKEDPRLVQKPTAAGSKIDPSSDIANLKNESKLKRDSEFNSFLGTTKPPSMTESSLKNDDDKVIKGFRNEKSPAQLWAERKAKQNSGNAETKAEAPKPEVPEDEPEGEPDVKDLKSKFEGLAASEKEEEEMENKFAPPPKKSEPTIISPKPFSKPQEPVKAEEAEQPKTDYKKIGNPLPGMHIEADNEEEPEENDDDWDDDEDEAAQPPLPSRNVASGAPVQKEEPEQEEIAPSLPSRNSIPAPKQEEAPEQAPEEEIEEEAEEAAPQLPSRSSAAPPPPPRRATPEKKPKENPWATAEYDYDAAEDNELTFVENDKIINIEFVDDDWWLGELEKDGSKGLFPSNYVSLGN
